From PMC526180, “Conservation and Evolution of Cis-Regulatory Systems in Ascomycete Fungi”

What was measured:
Conditions in all cases: protein: recombinant; blunt
Sc_Rpn4p [1] = target: T1, Sc_Rpn4p (Saccharomyces cerevisiae S288C, UniProt Q03465 2-531); assay: SPR; 50 nM protein; Biacore 3000 SA chip; HBS: 10 mM HEPES pH 7.4, 150 mM NaCl, 3 mM EDTA, 0.005% P20; room temperature; 10 ul/min, 90 s injection; competitors preincubated 50 min
T1 sequence: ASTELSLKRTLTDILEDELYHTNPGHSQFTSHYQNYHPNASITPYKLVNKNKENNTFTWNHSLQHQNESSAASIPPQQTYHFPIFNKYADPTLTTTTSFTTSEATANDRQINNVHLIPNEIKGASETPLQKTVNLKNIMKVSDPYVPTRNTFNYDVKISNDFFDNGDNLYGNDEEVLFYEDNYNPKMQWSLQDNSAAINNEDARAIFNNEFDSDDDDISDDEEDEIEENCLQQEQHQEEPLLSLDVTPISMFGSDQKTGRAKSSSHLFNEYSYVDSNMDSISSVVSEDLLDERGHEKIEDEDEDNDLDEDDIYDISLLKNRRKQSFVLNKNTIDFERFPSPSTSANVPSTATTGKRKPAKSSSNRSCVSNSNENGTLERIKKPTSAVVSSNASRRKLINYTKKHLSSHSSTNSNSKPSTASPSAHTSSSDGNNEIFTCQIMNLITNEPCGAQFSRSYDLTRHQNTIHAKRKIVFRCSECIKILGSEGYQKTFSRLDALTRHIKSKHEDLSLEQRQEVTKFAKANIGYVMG

Sc_Rpn4p [2] = target: T1, Sc_Rpn4p; assay: SPR; Biacore 3000 SA chip; HBS: 10 mM HEPES pH 7.4, 150 mM NaCl, 3 mM EDTA, 0.005% P20; room temperature; 10 ul/min, 90 s injection; competitors preincubated 50 min
Sc_Rpn4p [3] = target: T1, Sc_Rpn4p; assay: competition; SPR; 1x and 5x competitor; best competitor on Sequences A, B, C; Biacore 3000 SA chip; HBS: 10 mM HEPES pH 7.4, 150 mM NaCl, 3 mM EDTA, 0.005% P20; room temperature; 10 ul/min, 90 s injection; competitors preincubated 50 min
Sc_Rpn4p [4] = target: T1, Sc_Rpn4p; assay: competition; SPR; 1x and 5x competitor; Biacore 3000 SA chip; HBS: 10 mM HEPES pH 7.4, 150 mM NaCl, 3 mM EDTA, 0.005% P20; room temperature; 10 ul/min, 90 s injection; competitors preincubated 50 min

B1: Sequence A (dsDNA)
DNA 1: GCGTGCCAGATAATCGGTGGCAAAACGGAAGAAAAAGTGA
DNA 2: TCACTTTTTCTTCCGTTTTGCCACCGATTATCTGGCACGC
B1: binds (Sc_Rpn4p [1]).

B2: Sequence I (dsDNA)
DNA 1: ACTTGTTCCCGCTCGCTGGAGCTCCTCCAACGACACGGGC
DNA 2: GCCCGTGTCGTTGGAGGAGCTCCAGCGAGCGGGAACAAGT
B2: no binding (Sc_Rpn4p [2]).

B3: Sequence D competitor (dsDNA)
DNA 1: CCAGATAATCGGTGGCAAAACGGAAGAAAA
DNA 2: TTTTCTTCCGTTTTGCCACCGATTATCTGG
B3: binds (Sc_Rpn4p [3]).

B4: Sequence G competitor (dsDNA)
DNA 1: CCAGATAATCCTGCATTTGGCGGAAGAAAA
DNA 2: TTTTCTTCCGCCAAATGCAGGATTATCTGG
B4: no binding (Sc_Rpn4p [4]).
